Assay results from patent US20130252821A1, “METHODS AND COMPOSITIONS FOR THE TREATMENT AND DIAGNOSIS OF DISEASES CHARACTERIZED BY VASCULAR LEAK, HYPOTENSION, OR A PROCOAGULANT STATE” (Beth Israel Deaconess Medical Center, Inc., priority 2005, published 2013).

Legend:
RhoA = assay: Rho activity assay (pull-down) in HMVEC-L; format: cell-based, human
Description: These were performed and quantified using the commercially available kit according to the manufacturer's instruction (Cytoskeleton, Denver, Colo.). After signal starvation, HMVEC-L were treated with vehicle, Ang-1 (100 ng/ml) with or without inhibitor for the indicated time and harvested with lysis buffer. Following a brief centrifugation to remove cell debris, lysates from the cells containing equivalent protein concentrations were incubated for 60 minutes with 40 μL slurry of a GST-fusion protein composed of Rac1 or RhoA effector proteins coupled to agarose beads. After washing with lysis buffer, samples were subjected to immunoblotting and detected with anti-Rac1 or anti-RhoA antibody (Santa Cruz Biotechnology, Santa Cruz, Calif.). Whole cell lysates were also run to determine the total amount of Rac1 or RhoA protein.

p85 subunit of PI3K = assay: PI3K activity assay (p85 phosphorylation ELISA); format: cell-based, human; conditions: Ang-1 100 ng/ml, 15 minutes
Description: After signal starvation, HMVEC-L were treated with vehicle or Ang-1 (100 ng/ml) for 15 minutes. Total and phosphorylated p85 subunits of PI3K were quantified using a commercial enzyme-linked immunosorbent assay according to the manufacturer's instruction (Active Motif, Carlsbad, Calif.). Phosphorylated PI3K p85 subunit was corrected by total PI3K.

p190RhoGAP = p190RhoGAP phosphorylation in HMVEC-L; format: cell-based, human; conditions: Ang-1 100 ng/ml
Description: We lysed HMVEC-L with Triton buffer (50 mM Tris-HCl pH 8.0, 150 mM NaCl, 1% Triton X 100, and 5 mM EDTA) supplemented with protease inhibitors (Roche Diagnostics), 1 mM NaF and 1 mM Na3VO4, adjusting protein concentration by BCA protein assay (Pierce) and incubated 200 μg of total protein with anti-Tie2-Ab (clone Ab33, Upstate, Lake Placid, N.Y.) or p190RhoGAP Ab (Transduction laboratory, Lexington, Ky.) for 3 hours, followed by incubation with protein A sepharose (Zymed, San Francisco, Calif.) for 2 hours at 4° C. After washing the beads, proteins were eluted by heating in SDS-sample buffer and detected by immunoblotting with anti-phospho-tyrosine (clone 4G10, Upstate), anti-Tie-2 Ab, or anti-p190RhoGAP Ab.

[1] = system: myosin light chain (MLC) phosphorylation in HMVECs; assay: MLC phosphorylation assay (Western blot); format: cell-based, human; conditions: Ang-1 100 ng/ml added
Description: After signal starvation with 0.25% FBS EBM-2 for 24 h, cells were treated with 100 ng/ml Ang-2 or vehicle for 0, 1, 3, and 6 hours. Phosphorylated myosin light chain (MLC-p) (phospho-serine 19) and GAPDH were detected by Western blot analysis. For human subject serum effects on HMVECs, serum was diluted to 5% with EBM-2 and filtered with low protein binding PVDF membrane (0.22 μm, Millipore Corp, Bedford, Mass.). Anti-MLC-phospho-serine-19 Ab was obtained from Abcam Inc.

HMVEC monolayers = assay: Immunofluorescence of endothelial architecture (F-actin, VE-cadherin); format: cell-based, human; conditions: 10% patient serum plus 100 ng/ml recombinant human Ang-1
Description: HMVEC were grown to confluence on glass coverslips coated with 1% gelatin. The cells were fixed for 10 minutes in 4% paraformaldehyde in PBS, incubated for 5 min in 0.5% Triton X-100 in PBS. After blocking, the monolayers were processed for staining with anti-VE-cadherin monoclonal antibody (BD Pharmingen, San Diego, Calif.) and Alexa Fluoro 488 goat anti-mouse IgG, rhodamine phalloidin (Molecular Probe, Eugene, Oreg.) for F-actin staining and TOPRO-3-iodine (Molecular Probe) for nuclear staining. Fluorescence images were obtained using a Bio Rad MRC confocal fluorescence microscope. For human subject serum experiments, serum was diluted to 10% with EBM-2 and filtered with low protein binding PVDF membrane (0.22 μm, Millipore Corp) prior to application on endothelial cell monolayers.

HMVEC-L = assay: Immunohistochemistry of HMVEC-L (F-actin, MLC-P, VE-cadherin); format: cell-based, human
Description: HMVEC-L were grown to confluent on glass coverslips coated with 0.1% gelatin (Attachment factor, Cascade Biologics, Portland, Oreg.) in 5% FBS/EGM2. […] We used rhodamine phalloidin (Molecular Probe) for F-actin staining and TOPRO®-3-iodine (Molecular Probe) for nuclear staining. Fluorescence images were obtained using a Bio Rad MRC confocal fluorescence microscope.

[2] = system: mice (female FVB strain), lung; assay: In vivo permeability assay (Evans blue, LPS); parameters: species or system mouse; conditions: Ang-1 10 mcg ip x 2 doses
Description: Mice (8-12 weeks old, female FVB strain) were pretreated with Ang-1 (10 mcg, ip). 8 hours after the first Ang-1 injection, the second dose of Ang-1 (10 mcg, ip) and LPS (100 μg, ip) were co-injected. Lung permeability was assessed 16 hours after the second injection. Mice were anesthetized with Avertin (2,2,2-Tribromoethanol) and 2% Evans blue (50 μl) was then injected into the retro-orbital sinus. Ten minutes after Evans blue injection, mice were sacrificed and perfused with PBS with 2 mM EDTA for 10 minutes through a cannula placed in the right ventricle. […] Organs were then harvested and homogenized in 1.5 nil formamide. Evans blue was extracted by incubating the samples at 70° C. for 24 hours, and the concentration of Evans blue was estimated by dual-wavelength spectrophotometer (620 and 740 nm). The following formula was used to correct optical densities (E) for contamination with heme pigments: E620 (corrected)=E620−(1.426XE740+0.030).

B1: Ang-1: Human recombinant angiopoietin-1 purchased from R&D systems; Tie-2 agonist, endogenous Ang-2 antagonist (protein, listed as Homo sapiens)
chain: MTVFLSFAFLAAILTHIGCSNQRRSPENSGRRYNRIQHGQCAYTFILPEHDGNCRESTTDQYNTNALQRDAPHVEPDFSSQKLQHLEHVMENYTQWLQKLENYIVENMKSEMAQIQQNAVQNHTATMLEIGTSLLSQTAEQTRKLTDVETQVLNQTSRLEIQLLENSLSTYKLEKQLLQQTNEILKIHEKNSLLEHKILEMEGKHKEELDTLKEEKENLQGLVTRQTYIIQELEKQLNRATTNNSVLQKQQLELMDTVHNLVNLCTKEGVLLKGGKREEEKPFRDCADVYQAGFNKSGIYTIYINNMPEPKKVFCNMDVNGGGWTVIQHREDGSLDFQRGWKEYKMGFGNPSGEYWLGNEFIFAITSQRQYMLRIELMDWEGNRAYSQYDRFHIGNEKQNYRLYLKGHTGTAGKQSSLILHGADFSTKDADNDNCMCKCALMLTGGWWFDACGPSNLNGMFYTAGQNHGKLNGIKWHYFKGPSYSLRSTTMMIRPLDF
- RhoA activity (RhoA; HMVEC-L treated with Ang-1): decreased 30 minutes after
- effect on endotoxin-induced RhoA activity (RhoA; co-incubation with Ang-1): reversed
- phosphorylation of the p85 subunit of PI3K (p85 subunit of PI3K): induces phosphorylation of the p85 subunit of PI3K
- phosphorylation of p190RhoGAP (p190RhoGAP): induces phosphorylation of p190RhoGAP
- effect on MLC phosphorylation caused by high Ang-2 serum (CE2) [1]: inhibited
- reversal of gap formation provoked by high Ang-2 sepsis serum (HMVEC monolayers): reversed
- cytoskeleton and junction staining compared to control cells (HMVEC-L; Ang-1, confluent HMVEC-L, 30 min): increase in cortical actin, peripheral MLC-P, and increased VE-cadherin staining at cell junctions
- effect on endotoxin-induced structural derangements (HMVEC-L; endotoxin plus Ang-1): reverted the endotoxin-induced derangements to a normal appearance
- effect on endotoxin-increased lung permeability [2]: blocked
